Reference: publication doi:10.1101/2023.07.17.549218
Values belong to the substance of their own block, whether it stands above or below them.

Columns and labels:
[1] = molecular target: HK97 small terminase (bacteriophage HK97); assay: cryo-EM structure; small terminase with 31 bp dsDNA (cos 7-37), 1:2 protein to DNA, 25 mM Tris-HCl pH 7.5, 200 mM NaCl, 10 mM MgCl2; complex purified on S200 10/30; nonamer
[2] = molecular target: HK97 small terminase Arg5Ala mutant (bacteriophage HK97); assay: SEC; size exclusion chromatography of the purified mutant proteins (Supplementary Fig. 12); nonamer
[3] = molecular target: HK97 small terminase Arg7Ala mutant (bacteriophage HK97); assay: as above
[4] = molecular target: HK97 small terminase Arg107Ala mutant (bacteriophage HK97); assay: as above
[5] = molecular target: HK97 small terminase Arg114Ala mutant (bacteriophage HK97); assay: as above
[6] = molecular target: HK97 small terminase Lys4Ala mutant (bacteriophage HK97); assay: as above
[7] = molecular target: HK97 small terminase Lys4Ala/Arg5Ala/Arg7Ala triple mutant (bacteriophage HK97); assay: as above
[8] = molecular target: HK97 small terminase Lys100Ala mutant (bacteriophage HK97); assay: as above
[9] = molecular target: T1, HK97 small terminase WT (bacteriophage HK97) (UniProt Q9MBW4); assay: MST; conditions: 25 mM Tris-HCl pH 7.5, 200 mM NaCl, 10 mM MgCl2; EMSA: 3 h at RT, gel at 4 C, 1 uM protein with 2 uM unlabelled or 30 nM labelled DNA; MST: +0.005-0.01% Tween …
T1 sequence: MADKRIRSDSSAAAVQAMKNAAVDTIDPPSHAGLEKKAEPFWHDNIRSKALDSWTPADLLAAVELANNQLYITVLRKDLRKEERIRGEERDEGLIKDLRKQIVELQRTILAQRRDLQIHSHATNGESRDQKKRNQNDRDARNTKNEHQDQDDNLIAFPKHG

[10] = system: HK97 small terminase K4A/R5A/R7A (bacteriophage HK97); assay: MST; conditions: 25 mM Tris-HCl pH 7.5, 200 mM NaCl, 10 mM MgCl2; EMSA: 3 h at RT, gel at 4 C, 1 uM protein with 2 uM unlabelled or 30 nM labelled DNA; MST: +0.005-0.01% Tween …
[11] = system: HK97 small terminase R107A (bacteriophage HK97); assay: MST; conditions: 25 mM Tris-HCl pH 7.5, 200 mM NaCl, 10 mM MgCl2; EMSA: 3 h at RT, gel at 4 C, 1 uM protein with 2 uM unlabelled or 30 nM labelled DNA; MST: +0.005-0.01% Tween …

stoichiometry N [1]: 9
Substance: HK97 small terminase (natural protein)

stoichiometry N [2]: 9
Substance: HK97 small terminase Arg5Ala mutant (natural protein)

stoichiometry N [3]: 9
Substance: HK97 small terminase Arg7Ala mutant (natural protein)

stoichiometry N [4]: 9
Substance: HK97 small terminase Arg107Ala mutant (natural protein)

stoichiometry N [5]: 9
Substance: HK97 small terminase Arg114Ala mutant (natural protein)

stoichiometry N [6]: 9
Substance: HK97 small terminase Lys4Ala mutant (natural protein)

stoichiometry N [7]: 9
Substance: HK97 small terminase Lys4Ala/Arg5Ala/Arg7Ala triple mutant (natural protein)

stoichiometry N [8]: 9
Substance: HK97 small terminase Lys100Ala mutant (natural protein)

Substance: cos71 (cos 31-100), lacks binding site
Kd [9]: 2040 nM

Substance: cos100 (cos -20 to 80)
Kd [10]: 850 nM
Kd [11]: 790 nM
Kd [9]: 500 nM
